In article doi:10.1101/2024.07.19.604271 one finds fold lower affinity than bKip2-WT and fold reduction of tubulin transport events against wild type Kip2 data, which are given here for three substances.

Like-named read-outs stand apart in the source and are kept apart here.

In test [1] the target is stabilized microtubules polymerized from pig brain tubulin (GMPCPP-stabilized or Taxotere-stabilized) (pig). The test is described as follows: TIRF microscopy of fluorescent kinesin on surface-attached microtubules.
Test [2] has the same target. The test is described as above. This is another data set of the same source.
The target in test [3] is full-length Kip2-Δ70 (S. cerevisiae) (UniProt P28743). In words: TIRF microscopy, tubulin transport assay.

“bKip2-P1 (motor domain P1 mutant, K294R K296R) (from UniProt P28743 1-560) (domain or fragment)”: the fold lower affinity than bKip2-WT in test [1] was 3.5 fold; in test [2] it was 2.8 fold.
In test [1], “bKip2-Δ70 (from UniProt P28743 71-560) (domain or fragment)” gave a fold lower affinity than bKip2-WT of 1.3 fold.
Turning to “free tubulin dimers, ATTO-488-labelled, from pig brain (complex)”, the fold reduction of tubulin transport events against wild type Kip2 in test [3] lay within 3 to 8 fold.
